Target: cynomolgus monkey FcRn (cynomolgus monkey) (UniProt Q8SPV9)
Test: SPR; Biacore T200, pH 6.0; antibody and FcRn; who was immobilised is not told (details in Supplementary Information)

Sequence of UniProt Q8SPV9 (Q8SPV9 24-365): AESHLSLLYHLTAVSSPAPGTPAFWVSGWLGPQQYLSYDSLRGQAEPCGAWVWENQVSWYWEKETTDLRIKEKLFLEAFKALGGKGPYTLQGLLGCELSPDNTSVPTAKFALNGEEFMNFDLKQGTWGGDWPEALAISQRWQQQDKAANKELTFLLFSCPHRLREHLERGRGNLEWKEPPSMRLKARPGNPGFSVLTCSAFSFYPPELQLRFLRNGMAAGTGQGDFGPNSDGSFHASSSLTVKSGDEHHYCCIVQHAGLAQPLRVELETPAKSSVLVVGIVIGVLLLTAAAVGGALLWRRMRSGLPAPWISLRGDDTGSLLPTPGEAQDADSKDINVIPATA

Kd: 1980 nM
Substance: trastuzumab (antibody)

From PMC5430875
